# Reference: patent US6987089
# T1: His-CIA recombinant protein (His6-tagged mouse CIA)
# T1 chain: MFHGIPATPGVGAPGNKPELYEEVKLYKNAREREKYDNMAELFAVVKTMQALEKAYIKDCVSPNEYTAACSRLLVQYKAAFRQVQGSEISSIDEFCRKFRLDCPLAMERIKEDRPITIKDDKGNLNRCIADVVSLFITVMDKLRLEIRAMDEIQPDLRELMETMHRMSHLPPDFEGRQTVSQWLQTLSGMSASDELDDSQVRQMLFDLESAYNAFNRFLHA
# B1: ASK1-Flag (expressed from pcDNA3-ASK1-Flag in 293 cells, immunoprecipitated with anti-Flag) (protein)
# chain: MSTEADEGITFSVPPFAPSGFCTIPEGGICRRGGAAAVGEGEEHQLPPPPPGSFWNVESAAAPGIGCPAATSSSSATRGRGSSVGGGSRRTTVAYVINEASQGQLVVAESEALQSLREACETVGATLETLHFGKLDFGETTVLDRFYNADIAVVEMSDAFRQPSLFYHLGVRESFSMANNIILYCDTNSDSLQSLKEIICQKNTMCTGNYTFVPYMITPHNKVYCCDSSFMKGLTELMQPNFELLLGPICLPLVDRFIQLLKVAQASSSQYFRESILNDIRKARNLYTGKELAAELARIRQRVDNIEVLTADIVINLLLSYRDIQDYDSIVKLVETLEKLPTFDLASHHHVKFHYAFALNRRNLPGDRAKALDIMIPMVQSEGQVASDMYCLVGRIYKDMFLDSNFTDTESRDHGASWFKKAFESEPTLQSGINYAVLLLAAGHQFESSFELRKVGVKLSSLLGKKGNLEKLQSYWEVGFFLGASVLANDHMRVIQASEKLFKLKTPAWYLKSIVETILIYKHFVKLTTEQPVAKQELVDFWMDFLVEATKTDVTVVRFPVLILEPTKIYQPSYLSINNEVEEKTISIWHVLPDDKKGIHEWNFSASSVRGVSISKFEERCCFLYVLHNSDDFQIYFCTELHCKKFFEMVNTITEEKGRSTEEGDCESDLLEYDYEYDENGDRVVLGKGTYGIVYAGRDLSNQVRIAIKEIPERDSRYSQPLHEEIALHKHLKHKNIVQYLGSFSENGFIKIFMEQVPGGSLSALLRSKWGPLKDNEQTIGFYTKQILEGLKYLHDNQIVHRDIKGDNVLINTYSGVLKISDFGTSKRLAGINPCTETFTGTLQYMAPEIIDKGPRGYGKAADIWSLGCTIIEMATGKPPFYELGEPQAAMFKVGMFKVHPEIPESMSAEAKAFILKCFEPDPDKRACANDLLVDEFLKVSSKKKKTQPKLSALSAGSNEYLRSISLPVPVLVEDTSSSSEYGSVSPDTELKVDPFSFKTRAKSCGERDVKGIRTLFLGIPDENFEDHSAPPSPEEKDSGFFMLRKDSERRATLHRILTEDQDKIVRNLMESLAQGAEEPKLKWEHITTLIASLREFVRSTDRKIIATTLSKLKLELDFDSHGISQVQVVLFGFQDAVNKVLRNHNIKPHWMFALDSIIRKAVQTAITILVPELRPHFSLASESDTADQEDLDVEDDHEEQPSNQTVRRPQAVIEDAVATSGVSTLSSTVSHDSQSAHRSLNVQLGRMKIETNRLLEELVRKEKELQALLHRAIEEKDQEIKHLKLKSQPIEIPELPVFHLNSSGTNTEDSELTDWLRVNGADEDTISRFLAEDYTLLDVLYYVTRDDLKCLRLRGGMLCTLWKAIIDFRNKQT
# Biological target: T1, His-CIA recombinant protein …
protein,measurement,value
B1,phosphorylation of GST-MKK6 (K82A) by immunoprecipitated ASK1 (immunocomplex kinase assay),"The presence of the HIS-CIA recombinant protein, however, lowered the kinase activity of ASK1, which had been activated by the UV irradiation, resulting in a significant decrease in the phosphorylation of GST-MKK6"
